Target: Recombinant human CD8ab protein (extracellular domains of CD8a and CD8b with leucine zippers and tags) (human) (UniProt P01732)
Test: ELISA: antigen coated on the plate, antibody titrated, anti-IgG (Fc)-HRP and TMB, A450

Sequence of Recombinant human CD8ab protein (extracellular domains of CD8a and CD8b with leucine zippers and tags) (human) (P01732 22-182, chain 1 of 2): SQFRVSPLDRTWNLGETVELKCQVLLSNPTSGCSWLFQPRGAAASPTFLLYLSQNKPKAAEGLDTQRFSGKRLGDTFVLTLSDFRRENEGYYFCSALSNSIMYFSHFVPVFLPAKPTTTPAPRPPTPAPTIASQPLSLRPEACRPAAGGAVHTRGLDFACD
Sequence of Recombinant human CD8ab protein (extracellular domains of CD8a and CD8b with leucine zippers and tags) (human) (P10966 22-170, chain 2 of 2, further chain): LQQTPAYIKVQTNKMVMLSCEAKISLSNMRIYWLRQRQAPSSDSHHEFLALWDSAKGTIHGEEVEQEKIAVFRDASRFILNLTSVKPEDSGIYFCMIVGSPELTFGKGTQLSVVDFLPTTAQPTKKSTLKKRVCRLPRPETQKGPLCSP

- EC50 (read off the curve): 0.2 nM
B1: xhCD8a1 (clone OKT8, Invitrogen) (antibody, from another filing, V domains shown)
VH: EVQLQQSGAELVKPGASVKLSCTASGFNIKDTYIHFVRQRPEQGLEWIGRIDPANDNTLYASKFQGKATITADTSSNTAYMHLCSLTSGDTAVYYCGRGYGYYVFDHWGQGTTLTVSS
VL: DVQINQSPSFLAASPGETITINCRTSRSISQYLAWYQEKPGKTNKLLIYSGSTLQSGIPSRFSGSGSGTDFTLTISGLEPEDFAMYYCQQHNENPLTFGAGTKLELK

Reference: patent publication US20220162314A1
